From PMC3783020 (Cellular microbiology, 2012)

How the values were obtained:
[1] = biological target: MBP-CHMP4B_(ΔC-Alix) (human); assay: SPR
[2] = biological target: MBP-CHMP4B_(ΔC-Alix) (human); assay: SPR; remark: listed apart in the source
[3] = biological target: CHMP2B-His6 (full length) (human, UniProt Q9UQN3 1-213); assay: SPR
[4] = biological target: T1, CHMP3 full length (residues 1-222) (human, UniProt Q9Y3E7 1-222); assay: SPR
T1 sequence (looked up): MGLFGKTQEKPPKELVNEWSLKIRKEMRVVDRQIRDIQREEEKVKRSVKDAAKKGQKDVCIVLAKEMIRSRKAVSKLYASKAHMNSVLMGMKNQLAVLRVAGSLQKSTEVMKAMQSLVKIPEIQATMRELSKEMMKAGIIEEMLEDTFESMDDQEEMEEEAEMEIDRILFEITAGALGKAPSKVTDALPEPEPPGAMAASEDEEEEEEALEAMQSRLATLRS

[5] = biological target: T1, CHMP3 full length (residues 1-222); assay: cryo-EM structure

CHMP2B-His6 (full length) (human, UniProt Q9UQN3 1-213), sequence (Q9UQN3 whole entry, the tested form may be a part): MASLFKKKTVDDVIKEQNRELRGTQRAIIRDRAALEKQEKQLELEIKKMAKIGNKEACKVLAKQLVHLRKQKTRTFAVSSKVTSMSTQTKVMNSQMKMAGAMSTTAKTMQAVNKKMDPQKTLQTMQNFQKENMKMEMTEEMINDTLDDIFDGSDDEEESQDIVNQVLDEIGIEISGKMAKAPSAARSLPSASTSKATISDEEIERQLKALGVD

“CHMP2B-His6 (full length) (from UniProt Q9UQN3 1-213) (natural protein)” showed a Kd [1] of 560 nM.

B1: CHMP3 full length (residues 1-222) (natural protein)
chain: MGLFGKTQEKPPKELVNEWSLKIRKEMRVVDRQIRDIQREEEKVKRSVKDAAKKGQKDVCIVLAKEMIRSRKAVSKLYASKAHMNSVLMGMKNQLAVLRVAGSLQKSTEVMKAMQSLVKIPEIQATMRELSKEMMKAGIIEEMLEDTFESMDDQEEMEEEAEMEIDRILFEITAGALGKAPSKVTDALPEPEPPGAMAASEDEEEEEEALEAMQSRLATLRS
B1 gave a KD1 (at low concentrations) [2] of 0.15 µM.

B2: CHMP3ΔC (residues 9-183) (domain or fragment, human, UniProt Q9Y3E7 9-183, looked up)
chain: EKPPKELVNEWSLKIRKEMRVVDRQIRDIQREEEKVKRSVKDAAKKGQKDVCIVLAKEMIRSRKAVSKLYASKAHMNSVLMGMKNQLAVLRVAGSLQKSTEVMKAMQSLVKIPEIQATMRELSKEMMKAGIIEEMLEDTFESMDDQEEMEEEAEMEIDRILFEITAGALGKAPSK
With B2 the Kd [3] was 1400 nM.

B3: MBP-CHMP2AΔC (residues 9-161) (domain or fragment, human, UniProt O43633 9-161, looked up)
chain: KTPEELLRQNQRALNRAMRELDRERQKLETQEKKIIADIKKMAKQGQMDAVRIMAKDLVRTRRYVRKFVLMRANIQAVSLKIQTLKSNNSMAQAMKGVTKAMGTMNRQLKLPQIQKIMMEFERQAEIMDMKEEMMNDAIDDAMGDEEDEEESD
modifications: biotin on lysines (biotin sulfo-LC-NHS, molar ratio 1:5) where it was immobilised; not biotinylated as analyte
For B3, the Kd [4] was 3.2 µM.

B4: CHMP2AΔC (residues 9-161), MBP removed (domain or fragment, human, UniProt O43633 9-161, looked up)
chain: KTPEELLRQNQRALNRAMRELDRERQKLETQEKKIIADIKKMAKQGQMDAVRIMAKDLVRTRRYVRKFVLMRANIQAVSLKIQTLKSNNSMAQAMKGVTKAMGTMNRQLKLPQIQKIMMEFERQAEIMDMKEEMMNDAIDDAMGDEEDEEESD
B4: binds [5].
